Data from patent US20220112288A1 (published 2022).
Numbering of substitutions follows the chain as printed.

B1: 75110_03I08A (antibody, V domains shown)
VH: QVQLQESGPGLVKPSETLSLTCTVSGGSISSYYWSWIRQPPGKGLEWIGYIYYSGSTNYNPSLKSRVTISVDTSKNQFSLKLSSVTAADTAVYYCAREGEQWFYGLDVWGQGTTVTVSS
VL: EIVLTQSPGTLSLSPGERATLSCRASQSVSSTYLAWYQQKPGQAPRLLIYGSSSRATGIPDRFSGSGSGTDFTLTISRLEPEDFAVYYCQQYGNSFPITFGQGTRLEIK
notes: Tested as non-clonal hybridoma supernatant (AlivaMab Mouse Kappa), detected with anti-mouse Fc and anti-human kappa
B2: 75110_06C16A (antibody, V domains shown)
VH: QVQLQESGPGLVTPSETLSLSCTVSGGSISDYYWSWIRQPGGKGLEWIGRIYSSGSTNYNPSLKSRVTMSVDTSKNQFSLKLSSVTAADTAVYFCARDREDYYYYGMDVWGQGTTVTVSS
VL: DIQMTQSPSSLSASVGDRVTITCQASHDISNYLNWYQQKPGKAPKLLIYAASNLETGVPSRFSGSGSGTDFSFTISSLQPEDIATYYCQQYDHLPLTFGGGTKVEIK
notes: Tested as non-clonal AlivaMab Mouse Kappa hybridoma supernatant (detected with anti-mouse Fc gamma and anti-human kappa)
B3: 75110_06K03A (antibody, V domains shown)
VH: QVQLQESGPGLVKPSETLSLTCTVSGGSISTYYWSWIRQPAGKGLEWIGRINTSGSTTYNPSLKSRVTMSVDTSKNQFSLKLSSVTAADTAVYYCARELERYYYYGMDVWGQGTTVTVSS
VL: B2 VL with H27Q, A50Y, N53I, S72T, H93S
notes: as for B2
B4: 75110_08D24A (antibody, V domains shown)
VH: B3 VH with T31G, Y32F, N52Y, G55E, S56N, T58N, E98D, L99R, R101G
VL: B2 VL with H27Q, S72T, H93S, L96I, G100Q, K103R, V104L
notes: as for B2
B5: 75110_06G04A (antibody, V domains shown)
VH: B3 VH with Q5L, T31S, N52Y, T53I, T58N, V71I, K75E, K81N, Y102P
VL: B2 VL with H27Q, A50N, N53T, S72T, H93N, I106F
notes: as for B2
B6: 75110_07J02A (antibody, V domains shown)
VH: EVQLVESGGGLVQPGGSLRLSCAASGFTFSSYWMSWVRQAPGKGLEWVANIKEDGSEKYYVDSVKGRFTISRDNAKNSLYLQMNSLRAEDTAVYYCARDGSYSGYGMDVWGQGTTVTVSS
VL: AIQMTQSPSSLSASVGDRVTITCRASQGIRNDLGWYQQKPGKAPKLLIYAASSLQSGVPSRFSGRGSGTDFALTISSLQPEDFATYYCLLDYNYPYTFGQGTRLEIK
notes: as for B2
B7: 75110_07N04A (antibody, V domains shown)
VH: QVQLQESGPGLVKPSETLSLTCSVSGVSSTSFYWSWIRQPAGKGLDWIGRIYTSGSTNYNPSLKSRVTMSVDTSKNQFSLKLSSVTAADTAVYYCARDPGYSDAFAIWGQGTMVTVSS
VL: not shown
notes: as for B2
B8: 75110_05G15A (antibody, V domains shown)
VH: QVQLQESGPGLVKPSQTLSLTCTVSGGSISSGGYFWSWIRQHPGKGLEWIGCIYYSGSTYYIPSLKSRVTISVDTSKNQFSLKLRSVTAADTAVYYCARDGYDYWYFDLWGRGTLVTVSS
VL: not shown
B9: 75110_10K21A (antibody, V domains shown)
VH: EVQLVESGGGLVQPGGSLRLSCAASGFTFSSYWMTWVRQAPGKGLEWVANIKQDGSEKYYVDSVKGRFTISRDNAKNSLYLQMNSLRAEDTAVYYCVRDRYDALDIWGQGTMVTVSS
VL: B6 VL with G34N, R65S, A72T, P80A, L90K, R103K
notes: Tested as non-clonal AlivaMab Mouse hybridoma supernatant (human variable regions and human kappa, mouse Fc); also called ADS75110 non-clonal supernatant 10K21A
B10: 75110_02I16A (antibody, V domains shown)
VH: QVQLQQWGAGLLKPSETLSLTCDVYGGSFSGYYWTWIRQPPGKGLEWIGEINHSGTTNSNPSLKSRVTISVDTSKSQFSLRLSSVTAADTAVYFCTRELNWFDPWGQGTLVTVSS
VL: DIQMTQSPSSVSASVGDRVTITCRASQDIANWLAWYQQKPGKAPQLLIYAASSLLGGVPSRFSGSGSGADFTLTISSLHPEDFATYYCQQANSFPYTFGQGTKLEIK
notes: Tested as non-clonal AlivaMab Mouse hybridoma supernatant (human variable regions and human kappa, mouse Fc); also called ADS75110 non-clonal supernatant 02I16A
B11: 75110_01H18A (antibody, V domains shown)
VH: QVQLQQWGAGLLKPSETLSLTCAVYGGSFSGYYWSWIRQSPGKGLEWIGEINQSGSTNYNPSLKSRVTISVDTSKNQFSLKLSSVTAADTAVYYCARVINWFDSWGQGTLVTVSS
VL: DIQMTQSPSSVSASVGDRVTITCRASQGISSWLAWYQQKPGKAPKLLIYAASSFQSGVPSRFSGSGSGTDFTLTISSLQTEDFATYYCQQANSFPYTFGQGTRLEIK
notes: Tested as non-clonal AlivaMab Mouse hybridoma supernatant (human variable regions and human kappa, mouse Fc); also called ADS75110 non-clonal supernatant 01H18A

Each binder was assayed against T1, human CD4 on cells (SKW3 cells; human PBMCs) (human, UniProt P01730 26-458) (assay: FACS confirmation, supernatant on SKW3 WT cells, anti-mFc 647 (Bkrd gMFI = 3300)).
T1 construct: whole, on cells; SKW3 CD4 knockout cells served as the negative cell line for the WT vs KO ratios; also called hCD4; SKW3 WT

Row | Binder | gMFI [gMFI]
1 | B1 | 28000

Each binder was assayed against T2, human CD4 on cells (SKW3 cells; human PBMCs) (human, UniProt P01730 26-458) (assay: FACS primary screen, hybridoma supernatant, SKW3 vs SKW3 CD4 KO cells;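 note: flow cytometry on mixed SKW3 and dye-labeled SKW3 CD4 knockout cells after 30 min at 4 °C with supernatant, ratio of binding signal on parental versus knockout cells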).
T2 construct: whole, on cells; SKW3 CD4 knockout cells served as the negative cell line in the primary screen; also called hCD4; huCD4

Row | Binder | SKW3 WT vs KO ratio, anti-hKappa-FITC | SKW3 WT vs KO ratio, anti-mFc-647
2 | B2 | 1.9 | 5
3 | B3 | 2.7 | 7.5
4 | B4 | 1.1 | 4.1
5 | B5 | 3.3 | 9.3
6 | B6 | 1.3 | 2.3
7 | B7 | 2.8 | 7.8
8 | B8 | 1.5 | 2.8

These binders were tested against T2, human CD4 on cells (SKW3 cells; human …) (assay: FACS confirmation, supernatant on human PBMCs;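 note: flow cytometry with hybridoma supernatants incubated on human PBMCs for 30 min at 4 °C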).

Row | Binder | PBMCs CD4+ gate RL1 binding, anti-mFc 647 | PBMCs CD4+ percent bound of viable [%]
9 | B2 | 297000 | 28
10 | B3 | 296000 | 32
11 | B4 | 278000 | 30
12 | B5 | 240000 | 30
13 | B6 | 89200 | 27
14 | B7 | 344000 | 30
15 | B8 | 147000 | 32

What follows are binders tested against T3, huCD4-HIS (human, UniProt P01730 26-390, limits assumed) (assay: ELISA binning; competitor ibalizumab; 100 ng/mL huCD4-HIS, anti-HIS HRP; background 45, max binding 3000000).
T3 construct: the ELISA is not described in the text of this stretch; also called human CD4-HIS

Row | Binder | Ibalizumab ELISA binning signal
16 | B2 | 1.35e+06
17 | B3 | 1.65e+06
18 | B4 | 887000
19 | B5 | 1.96e+06
20 | B6 | 1.98e+06
21 | B7 | 1.66e+06
22 | B8 | 1.7e+06

The binders below were run against T2, human CD4 on cells (SKW3 cells; human …) (assay: FACS binning on SKW3 cells; competitor OKT4-A488; background 2163, max binding 8200).

Row | Binder | OKT4-A488 signal with supernatant
23 | B2 | 8240
24 | B3 | 9140
25 | B4 | 7930
26 | B5 | 9310
27 | B6 | 8050
28 | B7 | 9010
29 | B8 | 8080

What follows are binders tested against T2, human CD4 on cells (SKW3 cells; human …) (assay: FACS confirmation, supernatant on SKW3 cells; background gMFI 2500).

Row | Binder | gMFI on SKW3 WT, anti-hu Kappa FITC [gMFI]
30 | B2 | 4660
31 | B3 | 8640
32 | B4 | 3570
33 | B5 | 8480
34 | B6 | 3980
35 | B7 | 6230
36 | B8 | 6000

Each binder was assayed against T1, human CD4 on cells (SKW3 cells; human …) (assay: FACS confirmation, supernatant on human PBMCs, anti-mFc 647, CD4+ gate).

Row | Binder | CD4+ gate RL1 Binding
37 | B1 | 338000

These binders were tested against T1, human CD4 on cells (SKW3 cells; human …) (assay: FACS confirmation, supernatant on human PBMCs, anti-mFc 647, percent of viable cells).

Row | Binder | CD4+ Percent Bound of Viable [%]
38 | B1 | 32

What follows are binders tested against T2, human CD4 on cells (SKW3 cells; human …) (assay: FACS binning on SKW3 cells; competitor OKT4a; background 5000, max binding 35000).

Row | Binder | OKT4a signal (anti-hu A647) with supernatant
39 | B2 | 36800
40 | B3 | 33200
41 | B4 | 42500
42 | B5 | 30800
43 | B6 | 38000
44 | B7 | 36100
45 | B8 | 42300

The binders below were run against T1, human CD4 on cells (SKW3 cells; human …) (assay: FACS primary screen, non-clonal hybridoma supernatant; SKW3 WT vs SKW3 CD4 KO cells, anti-mFc-647).

Row | Binder | SKW3 WT vs KO anti-mFc-647 [fold]
46 | B1 | 7.6

Each binder was assayed against T2, human CD4 on cells (SKW3 cells; human …) (assay: FACS binning on SKW3 cells; competitor RPA-T4-PE-Dazzle 594; background 783, max binding 15000).

Row | Binder | RPA-T4-PE-Dazzle 594 signal with supernatant
47 | B2 | 15600
48 | B3 | 15800
49 | B4 | 14600
50 | B5 | 16600
51 | B6 | 15900
52 | B7 | 15500
53 | B8 | 15800

The binders below were run against T1, human CD4 on cells (SKW3 cells; human …) (assay: FACS confirmation, supernatant on SKW3 WT cells, anti-hu Kappa FITC (Bkrd gMFI = 2500)).

Row | Binder | gMFI [gMFI]
54 | B1 | 6120

What follows are binders tested against T4, Recombinant human CD4 (R&D Systems, Cat. 10327-CD) (human, UniProt P01730 26-390, limits assumed) (assay: BLI (Octet Red 384), non-clonal supernatant captured on AMC sensors, 100 nM human CD4, 1:1 local fit;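 note: hybridoma antibodies from supernatants, one CD4 concentration giving single-point kinetics per supernatant, with curves fitted over both association and dissociation phases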).
T4 construct: Bought protein; also called huCD4

Row | Binder | Kd [nM] | koff [s⁻¹] | kon [M⁻¹ s⁻¹]
55 | B9 | 2.66 | 0.000362 | 136000
56 | B10 | 3.9 | 0.0012 | 308000
57 | B11 | 0.902 | 0.000148 | 165000

These binders were tested against T1, human CD4 on cells (SKW3 cells; human …) (assay: FACS primary screen, non-clonal hybridoma supernatant; SKW3 WT vs SKW3 CD4 KO cells, anti-hKappa-FITC).

Row | Binder | SKW3 WT vs KO anti-hKappa-FITC [fold]
58 | B1 | 2.2

The binders below were run against T2, human CD4 on cells (SKW3 cells; human …) (assay: FACS confirmation, supernatant on SKW3 cells; background gMFI 3300).

Row | Binder | gMFI on SKW3 WT, anti-mFc 647 [gMFI]
59 | B2 | 12100
60 | B3 | 33600
61 | B4 | 20100
62 | B5 | 33700
63 | B6 | 13400
64 | B7 | 30400
65 | B8 | 28600

What follows are binders tested against T4, Recombinant human CD4 (R&D Systems, …) (assay: BLI (Octet Red 384), non-clonal supernatant captured on AMC sensors, 100 nM human CD4).

Row | Binder | Response
66 | B9 | 0.0687
67 | B10 | 0.0373
68 | B11 | 0.0657
